The values below come from article PMC5689087 (Structure (London, England : 1993), 2017).

Where no end group is shown, it is not given here. The star is where a group is joined. FITC = O=C1OC2(c3ccc(O)cc3Oc3cc(O)ccc32)c2ccc(NC(=S)*)cc21

The target in assay [1] is human αVβ3 integrin ectodomain (purchased, lyophilized) (human, UniProt P06756 31-992; P05106 27-718). Put plainly: SEC. (In general: SEC sorts molecules by how far they enter the pores of the column.)
For assay [2], the target named is human αVβ3 integrin ectodomain (purchased, lyophilized) (human, UniProt P06756;P05106). The assay is described as follows: SPR. In general terms: SPR reads the build-up and loss of mass on a sensor chip optically.
Chain of human αVβ3 integrin ectodomain (purchased, lyophilized) (human, UniProt P06756;P05106) (P06756 31-992, chain 1 of 2): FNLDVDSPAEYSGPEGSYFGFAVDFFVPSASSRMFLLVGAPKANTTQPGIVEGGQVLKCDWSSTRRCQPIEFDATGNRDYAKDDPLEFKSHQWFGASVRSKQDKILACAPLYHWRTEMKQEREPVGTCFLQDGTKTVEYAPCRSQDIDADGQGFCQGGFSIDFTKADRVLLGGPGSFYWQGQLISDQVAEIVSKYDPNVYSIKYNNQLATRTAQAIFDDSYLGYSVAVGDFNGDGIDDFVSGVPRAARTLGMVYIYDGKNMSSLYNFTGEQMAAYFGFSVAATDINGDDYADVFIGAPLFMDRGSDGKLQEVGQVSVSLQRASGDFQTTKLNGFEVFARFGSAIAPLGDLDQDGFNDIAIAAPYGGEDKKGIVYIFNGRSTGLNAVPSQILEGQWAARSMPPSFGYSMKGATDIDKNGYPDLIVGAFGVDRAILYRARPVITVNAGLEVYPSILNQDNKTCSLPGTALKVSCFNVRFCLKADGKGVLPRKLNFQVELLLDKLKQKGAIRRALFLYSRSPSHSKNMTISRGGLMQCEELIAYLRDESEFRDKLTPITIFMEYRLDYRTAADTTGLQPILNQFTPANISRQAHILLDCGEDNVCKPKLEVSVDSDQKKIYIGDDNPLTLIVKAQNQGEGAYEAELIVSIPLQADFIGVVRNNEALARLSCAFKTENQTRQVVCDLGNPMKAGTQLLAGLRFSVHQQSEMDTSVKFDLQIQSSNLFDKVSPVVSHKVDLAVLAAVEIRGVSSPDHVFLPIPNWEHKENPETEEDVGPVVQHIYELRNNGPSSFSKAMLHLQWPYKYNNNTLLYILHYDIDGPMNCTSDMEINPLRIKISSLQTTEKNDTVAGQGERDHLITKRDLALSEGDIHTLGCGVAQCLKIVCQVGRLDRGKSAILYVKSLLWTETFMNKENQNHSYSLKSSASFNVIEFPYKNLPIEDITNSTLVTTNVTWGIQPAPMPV
Chain of human αVβ3 integrin ectodomain (purchased, lyophilized) (human, UniProt P06756;P05106) (P05106 27-718, chain 2 of 2): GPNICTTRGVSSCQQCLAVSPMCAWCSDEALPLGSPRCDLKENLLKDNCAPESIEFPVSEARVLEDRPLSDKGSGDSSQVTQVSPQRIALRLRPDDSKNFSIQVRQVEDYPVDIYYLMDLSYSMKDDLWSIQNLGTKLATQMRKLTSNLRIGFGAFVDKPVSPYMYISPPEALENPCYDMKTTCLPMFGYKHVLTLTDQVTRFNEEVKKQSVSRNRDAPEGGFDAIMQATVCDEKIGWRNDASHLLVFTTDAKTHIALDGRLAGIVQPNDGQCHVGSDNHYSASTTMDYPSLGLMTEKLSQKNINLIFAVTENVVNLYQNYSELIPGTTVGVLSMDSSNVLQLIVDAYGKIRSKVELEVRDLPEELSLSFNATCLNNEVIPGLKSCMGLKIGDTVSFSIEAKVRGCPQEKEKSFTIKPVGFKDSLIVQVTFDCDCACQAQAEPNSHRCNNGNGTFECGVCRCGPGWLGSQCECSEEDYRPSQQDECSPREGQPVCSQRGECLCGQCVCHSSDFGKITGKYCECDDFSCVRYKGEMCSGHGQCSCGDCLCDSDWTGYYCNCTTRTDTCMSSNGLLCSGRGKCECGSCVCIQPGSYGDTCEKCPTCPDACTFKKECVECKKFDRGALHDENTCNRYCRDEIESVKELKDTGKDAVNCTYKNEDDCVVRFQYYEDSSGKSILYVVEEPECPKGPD

Chain of human αVβ3 integrin ectodomain (purchased, lyophilized) (human, UniProt P06756 31-992; P05106 27-718) (P06756 31-992, chain 1 of 2): as the sequence (P06756 31-992, chain 1 of 2) above
Chain of human αVβ3 integrin ectodomain (purchased, lyophilized) (human, UniProt P06756 31-992; P05106 27-718) (P05106 27-718, chain 2 of 2): as the sequence (P05106 27-718, chain 2 of 2) above

B1: FITC-GRGDSPK peptide (peptide)
peptide: {FITC}-GRGDSPK
In the case of B1, the binding result in assay [1] was “binds”.

B2: Fab LM609 (recombinant antigen-binding fragment of the mouse monoclonal antibody LM609) (Fab, V domains shown)
VH: EVQLEESGGGLVKPGGSLKLSCAASGFAFSSYDMSWVRQIPEKRLEWVAKVSSGGGSTYYLDTVQGRFTISRDNAKNTLYLQMSSLNSEDTAMYYCARHNYGSFAYWGQGTLVTVSA
VL: ELVMTQTPATLSVTPGDSVSLSCRASQSISNHLHWYQQKSHESPRLLIKYASQSISGIPSRFSGSGSGTDFTLSINSVETEDFGMYFCQQSNSWPHTFGGGTKLEIK
As to B2, in assay [2], the dissociation constant (Kd) worked out at 23 nM, the koff turned out to be 0.0034 s⁻¹ and the kon came to 150000 M⁻¹ s⁻¹.

What is called Kd is the constant that tells how readily two partners part at equilibrium. As usually defined, the koff is the rate constant with which the complex falls apart. A higher koff goes with a short-lived complex. The kon is the rate constant with which the complex forms. Low readings indicate slower complex formation, high ones faster complex formation.
